Data on 40 variants can be found in the Human Domainome abundance scans (Beltran et al. 2025).

± gives the uncertainty stated by the source.

B1: Double-stranded RNA-binding protein Staufen homolog 1, residues 183 to 249; numbered along this chain, O95793 (parent)
chain: KSEISQVFEIALKRNLPVNFEVARESGPPHMKNFVTKVSVGEFVGEGEGKSKKISKKNAAIAVLEEL

Variants of B1 are the subject of this data set. Briefly: abundance fitness (aPCA) (normalised: wild type 0, dead -1); higher = more abundant; growth selection in yeast, the domain comes from the species named. To be noted: Homo sapiens.
Regarding KSEISQVFEIALKRNLPVNFEVARESFPPHMKNFVTKVSVGEFVGEGEGKSKKISKKNAAIAVLEEL [G27F], the abundance fitness was -0.436 ± 0.071.

Turning to KSEISQVFEIALKRNLPVNFEVARESMPPHMKNFVTKVSVGEFVGEGEGKSKKISKKNAAIAVLEEL [G27M], the abundance fitness is -0.395 ± 0.05.

As to KSEISQVFEIALKRNLPVNFEVARESTPPHMKNFVTKVSVGEFVGEGEGKSKKISKKNAAIAVLEEL [G27T], the abundance fitness was -0.309 ± 0.047.

Turning to KSEISQVFEIALKRNLPVNFEVARESLPPHMKNFVTKVSVGEFVGEGEGKSKKISKKNAAIAVLEEL [G27L], the abundance fitness is -0.418 ± 0.036.

Regarding KSEISQVFEIALKRNLPVNFEVARESWPPHMKNFVTKVSVGEFVGEGEGKSKKISKKNAAIAVLEEL [G27W], the abundance fitness was -0.48 ± 0.046.

KSEISQVFEIALKRNLPVNFEVARESVPPHMKNFVTKVSVGEFVGEGEGKSKKISKKNAAIAVLEEL [G27V]: the abundance fitness is -0.457 ± 0.047.

As to KSEISQVFEIALKRNLPVNFEVARESAPPHMKNFVTKVSVGEFVGEGEGKSKKISKKNAAIAVLEEL [G27A], the abundance fitness is -0.239 ± 0.043.

Turning to KSEISQVFEIALKRNLPVNFEVARESQPPHMKNFVTKVSVGEFVGEGEGKSKKISKKNAAIAVLEEL [G27Q], the abundance fitness is -0.259 ± 0.044.

For KSEISQVFEIALKRNLPVNFEVARESHPPHMKNFVTKVSVGEFVGEGEGKSKKISKKNAAIAVLEEL [G27H], the abundance fitness was -0.326 ± 0.11.

As to KSEISQVFEIALKRNLPVNFEVARESYPPHMKNFVTKVSVGEFVGEGEGKSKKISKKNAAIAVLEEL [G27Y], the abundance fitness was -0.437 ± 0.079.

Turning to KSEISQVFEIALKRNLPVNFEVARESIPPHMKNFVTKVSVGEFVGEGEGKSKKISKKNAAIAVLEEL [G27I], the abundance fitness was -0.223 ± 0.12.

In the case of KSEISQVFEIALKRNLPVNFEVARESCPPHMKNFVTKVSVGEFVGEGEGKSKKISKKNAAIAVLEEL [G27C], the abundance fitness is -0.366 ± 0.076.

For the variant KSEISQVFEIALKRNLPVNFEVARESSPPHMKNFVTKVSVGEFVGEGEGKSKKISKKNAAIAVLEEL [G27S], the abundance fitness is -0.267 ± 0.042.

For KSEISQVFEIALKRNLPVNFEVARESEPPHMKNFVTKVSVGEFVGEGEGKSKKISKKNAAIAVLEEL [G27E], the abundance fitness is -0.339 ± 0.049.

As for KSEISQVFEIALKRNLPVNFEVARESNPPHMKNFVTKVSVGEFVGEGEGKSKKISKKNAAIAVLEEL [G27N], the abundance fitness is -0.307 ± 0.081.

Regarding KSEISQVFEIALKRNLPVNFEVARESKPPHMKNFVTKVSVGEFVGEGEGKSKKISKKNAAIAVLEEL [G27K], the abundance fitness was -0.207 ± 0.052.

As to KSEISQVFEIALKRNLPVNFEVARESDPPHMKNFVTKVSVGEFVGEGEGKSKKISKKNAAIAVLEEL [G27D], the abundance fitness was -0.259 ± 0.046.

For the variant KSEISQVFEIALKRNLPVNFEVARVSGPPHMKNFVTKVSVGEFVGEGEGKSKKISKKNAAIAVLEEL [E25V], the abundance fitness is -0.025 ± 0.043.

For KSEISQVFEIALKRNLPVNFEVARTSGPPHMKNFVTKVSVGEFVGEGEGKSKKISKKNAAIAVLEEL [E25T], the abundance fitness was determined as 0.016 ± 0.051.

KSEISQVFEIALKRNLPVNFEVARYSGPPHMKNFVTKVSVGEFVGEGEGKSKKISKKNAAIAVLEEL [E25Y]: the abundance fitness was -0.151 ± 0.065.

For the variant KSEISQVFEIALKRNLPVNFEVARKSGPPHMKNFVTKVSVGEFVGEGEGKSKKISKKNAAIAVLEEL [E25K], the abundance fitness turned out to be 0.046 ± 0.055.

For KSEISQVFEIALKRNLPVNFEVARRSGPPHMKNFVTKVSVGEFVGEGEGKSKKISKKNAAIAVLEEL [E25R], the abundance fitness was -0.046 ± 0.036.

Consider KSEISQVFEIALKRNLPVNFEVARSSGPPHMKNFVTKVSVGEFVGEGEGKSKKISKKNAAIAVLEEL [E25S], for which the abundance fitness was determined as 0.002 ± 0.038.

Regarding KSEISQVFEIALKRNLPVNFEVARLSGPPHMKNFVTKVSVGEFVGEGEGKSKKISKKNAAIAVLEEL [E25L], the abundance fitness was -0.083 ± 0.034.

KSEISQVFEIALKRNLPVNFEVARQSGPPHMKNFVTKVSVGEFVGEGEGKSKKISKKNAAIAVLEEL [E25Q]: the abundance fitness was 0.021 ± 0.051.

For the variant KSEISQVFEIALKRNLPVNFEVARPSGPPHMKNFVTKVSVGEFVGEGEGKSKKISKKNAAIAVLEEL [E25P], the abundance fitness is -0.209 ± 0.055.

Turning to KSEISQVFEIALKRNLPVNFEVARMSGPPHMKNFVTKVSVGEFVGEGEGKSKKISKKNAAIAVLEEL [E25M], the abundance fitness was -0.011 ± 0.048.

For the variant KSEISQVFEIALKRNLPVNFEVAREPGPPHMKNFVTKVSVGEFVGEGEGKSKKISKKNAAIAVLEEL [S26P], the abundance fitness is -0.27 ± 0.45.

On to KSEISQVFEIALKRNLPVNFEVAREQGPPHMKNFVTKVSVGEFVGEGEGKSKKISKKNAAIAVLEEL [S26Q], for which the abundance fitness is -0.337 ± 0.42.

As for KSEISQVFEIALKRNLPVNFEVAREFGPPHMKNFVTKVSVGEFVGEGEGKSKKISKKNAAIAVLEEL [S26F], the abundance fitness is -0.348 ± 0.29.

As for KSEISQVFEIALKRNLPVNFEVARETGPPHMKNFVTKVSVGEFVGEGEGKSKKISKKNAAIAVLEEL [S26T], the abundance fitness was 0.085 ± 0.21.

As for KSEISQVFEIALKRNLPVNFEVARESGGPHMKNFVTKVSVGEFVGEGEGKSKKISKKNAAIAVLEEL [P28G], the abundance fitness was -0.111 ± 0.038.

Consider KSEISQVFEIALKRNLPVNFEVARESGKPHMKNFVTKVSVGEFVGEGEGKSKKISKKNAAIAVLEEL [P28K], for which the abundance fitness was -0.218 ± 0.057.

As for KSEISQVFEIALKRNLPVNFEVARESGCPHMKNFVTKVSVGEFVGEGEGKSKKISKKNAAIAVLEEL [P28C], the abundance fitness was -0.157 ± 0.069.

Regarding KSEISQVFEIALKRNLPVNFEVARESGHPHMKNFVTKVSVGEFVGEGEGKSKKISKKNAAIAVLEEL [P28H], the abundance fitness is -0.123 ± 0.091.

On to KSEISQVFEIALKRNLPVNFEVARESGDPHMKNFVTKVSVGEFVGEGEGKSKKISKKNAAIAVLEEL [P28D], for which the abundance fitness is -0.167 ± 0.096.

For the variant KSEISQVFEIALKRNLPVNFEVARESGIPHMKNFVTKVSVGEFVGEGEGKSKKISKKNAAIAVLEEL [P28I], the abundance fitness is -0.322 ± 0.067.

As for KSEISQVFEIALKRNLPVNFEVARESGFPHMKNFVTKVSVGEFVGEGEGKSKKISKKNAAIAVLEEL [P28F], the abundance fitness was -0.35 ± 0.07.

Regarding KSEISQVFEIALKRNLPVNFEVARESGEPHMKNFVTKVSVGEFVGEGEGKSKKISKKNAAIAVLEEL [P28E], the abundance fitness is -0.153 ± 0.062.

On to KSEISQVFEIALKRNLPVNFEVARESGAPHMKNFVTKVSVGEFVGEGEGKSKKISKKNAAIAVLEEL [P28A], for which the abundance fitness is -0.155 ± 0.056.
